Experimental data published in patent publication US20240254204A1 (published 2024).

Assays:
[1] = biological target: Bat CoV LYRa11
[2] = biological target: SARS-CoV-2 Mu
[3] = biological target: SARS-CoV-2 Delta
[4] = biological target: Bat CoV BANAL-52
[5] = biological target: SARS-CoV-2 Lambda (SARS-CoV-2 Lambda)
[6] = biological target: Bat CoV Rs2018B (SC1r-CoV Rs2018B)
[7] = biological target: SARS-CoV-2 Delta Plus
[8] = biological target: Bat CoV RsSHC014 (SC1r-CoV RsSHC014)
[9] = biological target: Pangolin CoV GX-
[10] = biological target: Bat CoV BANAL-236
[11] = biological target: Bat CoV WIV-1 (SC1r-CoV WIV-1)
[12] = biological target: Pangolin CoV GD-1
[13] = biological target: SARS-CoV-2
[14] = biological target: SARS-CoV-1
[15] = biological target: SARS-CoV-2 Gamma
[16] = biological target: SARS-COV-2 Omicron BA.2 RBD (SARS-CoV-2 Omicron BA.2)
[17] = biological target: SARS-COV-2 Omicron BA.1 RBD (SARS-CoV-2 Omicron BA.1)
[18] = biological target: SC2r-COV RaTG13 RBD (SC2r-CoV RaTG13 (bat))
[19] = biological target: SARS-COV-2 B.1.351 RBD (SARS-CoV-2 B.1.351 (Beta))

Binder | IC50 [1] [µg/mL] | IC50 [3] [µg/mL] | IC50 [5] [µg/mL] | IC50 [6] [µg/mL] | IC50 [7] [µg/mL] | IC50 [8] [µg/mL] | IC50 [9] [µg/mL] | IC50 [11] [µg/mL] | IC50 [12] [µg/mL] | IC50 [14] [µg/mL] | IC50 [16] [µg/mL] | IC50 [19] [µg/mL] | other results
F5 (antibody, V domains shown) VH: QVQLQESGPGLVKPSETLSLTCTVSGGSIIGYYWSWIRQPPGKGLEWIGYIYFSANTNYNPSLKSRVTMSVDMSKKQFSLKLRSVTAADTAVYYCARGGGYLETGPLDFWGQGILVTVSS VL: DIVMTQSPLSLPVTPGEPASISCRSSQSLMQLNGYNYLAWYLQRPGQSPQLLIYLGSTRASGVPDRFSGSGSGTDFTLKITRVEAEDVGVYYCMQGLQIPGTFGQGTRLEIK | 0.01 | 0.034 | 0.014 | 0.015 | 0.03 | 0.012 | 0.025 | 0.012 | 0.019 | 0.019 | – | – | IC50 [2]: 0.024 µg/mL; IC50 [4]: 0.027 µg/mL; IC50 [10]: 0.033 µg/mL; IC50 [13]: 0.03 µg/mL
E7 (antibody, V domains shown) VH: QVQLQESGPGLVKPSETLSLTCTVSGGFIGPHYWSWVRQPPGKGLEWIGYIYISGSTNYNPSLKSRLTISVDMSKSQFSLTLSSATAADTAVYYCARGGGYLETGPFEYWGQGTLVTVSS VL: DIVMTQSPLSLPVTPGEPASISCRSSQSLLQNNGYNYLAWYLQKPGQSPQLLIYLSSTRASGVPDRFSGSGSGTDFTLKISRVEAEDVGVYYCMQSLQIPGTFGQGTRLEIK | 0.021 | 0.097 | 0.032 | 0.032 | – | 0.022 | 0.039 | 0.03 | 0.073 | – | – | – | –
F1 (antibody, V domains shown) VH: QVQLQESGPGLVKPSETLSLTCSVSGVSILGSYWGWIRQPPGTGLQWIGYIYFSENTNYNPSLQSRVTMSLDTSKNLLSLKLSSVTAADTAVYYCARGGGYLETGPFDSWGQGTLVTVSS VL: DIVMTQSPLSLPVTPGEPASISCRSSQGLVQSNGYNYLAWYLQKPGQSPQLLIYLGSNRASGVPDRFSGSGSGTDFTLKISRVEAEDVGVYYCMQGLQTPGTFGQGTRLEIK | 0.031 | 0.12 | – | – | 0.112 | – | – | 0.037 | – | 0.073 | – | – | IC50 [15]: 0.082 µg/mL
Antibody 20 (SS6V20-F5) (antibody, V domains shown) VH: QVQLQESGPGLVKPSETLSLTCTVSGGSIIGYYWSWIRQPPGKGLEWIGYIYFSANTNYNPSLKSRVTMSVDMSKKQFSLKLRSVTAADTAVYYCARGGGYLETGPLDFWGQGILVTVSS VL: DIVMTQSPLSLPVTPGEPASISCRSSQSLMQLNGYNYLAWYLQRPGQSPQLLIYLGSTRASGVPDRFSGSGSGTDFTLKITRVEAEDVGVYYCMQGLQIPGTFGQGTRLEIK | – | – | – | – | – | – | – | – | – | – | 0.246 | – | IC50 [17]: 0.072 µg/mL; IC50 [18]: 0.015 µg/mL
Antibody 11 (SS6V11-E7) (antibody, V domains shown) VH: QVQLQESGPGLVKPSETLSLTCTVSGGFIGPHYWSWVRQPPGKGLEWIGYIYISGSTNYNPSLKSRLTISVDMSKSQFSLTLSSATAADTAVYYCARGGGYLETGPFEYWGQGTLVTVSS VL: DIVMTQSPLSLPVTPGEPASISCRSSQSLLQNNGYNYLAWYLQKPGQSPQLLIYLSSTRASGVPDRFSGSGSGTDFTLKISRVEAEDVGVYYCMQSLQIPGTFGQGTRLEIK | – | – | – | – | – | – | – | – | – | – | 0.222 | 0.044 | –
Antibody 13 (SS6V13-F1) (antibody, V domains shown) VH: QVQLQESGPGLVKPSETLSLTCSVSGVSILGSYWGWIRQPPGTGLQWIGYIYFSENTNYNPSLQSRVTMSLDTSKNLLSLKLSSVTAADTAVYYCARGGGYLETGPFDSWGQGTLVTVSS VL: DIVMTQSPLSLPVTPGEPASISCRSSQGLVQSNGYNYLAWYLQKPGQSPQLLIYLGSNRASGVPDRFSGSGSGTDFTLKISRVEAEDVGVYYCMQGLQTPGTFGQGTRLEIK | – | – | – | – | – | – | – | – | – | – | – | 0.087 | –
